Assay results as given in US20260184748A1, “COMPOSITIONS COMPRISING OCTADECANEUROPEPTIDES (ODN) AND SYNTHETIC DERIVATIVES THEREOF AND METHODS OF USE FOR MODULATION OF FOOD INTAKE, OBESITY, BODY WEIGHT, NAUSEA, AND EMESIS” (The Trustees of the University of Pennsylvania, priority 2022, published 2026).
One block for each compound: values may come before it. Where no end group is shown, it is not given here.

Tests used:
Experiment in all cases: Arrestin agonist mode
Type in all cases: cell-based
EBI2 = EBI2 (Homo sapiens, UniProt P32249)
Sequence of EBI2 (P32249 whole entry): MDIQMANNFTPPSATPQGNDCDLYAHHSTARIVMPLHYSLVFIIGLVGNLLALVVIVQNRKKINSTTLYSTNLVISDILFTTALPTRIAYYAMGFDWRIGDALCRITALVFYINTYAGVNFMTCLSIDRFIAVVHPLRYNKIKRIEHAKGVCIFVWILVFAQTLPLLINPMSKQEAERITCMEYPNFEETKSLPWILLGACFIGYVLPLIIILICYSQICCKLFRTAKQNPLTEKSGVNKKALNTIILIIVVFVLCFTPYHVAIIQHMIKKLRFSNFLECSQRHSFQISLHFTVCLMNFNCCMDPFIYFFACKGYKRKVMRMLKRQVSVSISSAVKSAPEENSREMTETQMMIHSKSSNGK

FFAR1 = FFAR1 (Homo sapiens, UniProt O14842); conditions: read-out: RC50 (the source's name)
Sequence of FFAR1 (O14842 whole entry): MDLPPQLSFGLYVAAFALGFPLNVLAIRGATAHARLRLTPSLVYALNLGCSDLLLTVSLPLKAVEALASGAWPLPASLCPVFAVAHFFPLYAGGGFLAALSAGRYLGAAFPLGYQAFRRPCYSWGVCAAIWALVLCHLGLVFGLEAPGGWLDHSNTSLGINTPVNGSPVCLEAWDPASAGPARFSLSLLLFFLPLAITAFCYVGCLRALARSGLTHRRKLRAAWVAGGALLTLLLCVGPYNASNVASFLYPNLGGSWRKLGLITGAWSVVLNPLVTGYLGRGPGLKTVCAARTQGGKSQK

CRTH2 = CRTH2 (Homo sapiens, UniProt Q9Y5Y4); conditions: read-out: RC50 (the source's name)
Sequence of CRTH2 (Q9Y5Y4 whole entry): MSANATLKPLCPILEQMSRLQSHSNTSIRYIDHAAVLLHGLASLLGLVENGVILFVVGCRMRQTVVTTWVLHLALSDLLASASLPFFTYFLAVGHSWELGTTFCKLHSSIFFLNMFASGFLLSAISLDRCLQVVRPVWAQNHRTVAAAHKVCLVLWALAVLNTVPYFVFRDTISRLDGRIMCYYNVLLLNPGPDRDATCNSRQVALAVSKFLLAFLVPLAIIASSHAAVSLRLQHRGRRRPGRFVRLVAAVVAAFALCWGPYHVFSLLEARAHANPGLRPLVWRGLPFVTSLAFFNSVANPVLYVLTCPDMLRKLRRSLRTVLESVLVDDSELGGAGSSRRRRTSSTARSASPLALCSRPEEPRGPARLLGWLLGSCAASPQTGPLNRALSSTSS

EDG6 = EDG6 (Homo sapiens, UniProt O95977); conditions: read-out: RC50 (the source's name)
Sequence of EDG6 (O95977 whole entry): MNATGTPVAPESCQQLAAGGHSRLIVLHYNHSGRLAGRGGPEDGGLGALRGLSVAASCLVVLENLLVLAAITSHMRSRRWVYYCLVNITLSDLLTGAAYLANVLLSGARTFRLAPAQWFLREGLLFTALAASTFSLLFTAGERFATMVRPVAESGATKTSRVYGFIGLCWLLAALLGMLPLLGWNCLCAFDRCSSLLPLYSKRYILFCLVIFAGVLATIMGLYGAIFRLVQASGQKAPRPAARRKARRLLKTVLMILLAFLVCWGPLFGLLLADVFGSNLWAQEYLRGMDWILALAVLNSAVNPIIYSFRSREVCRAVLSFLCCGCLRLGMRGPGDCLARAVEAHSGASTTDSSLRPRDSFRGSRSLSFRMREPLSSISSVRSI

EDG3 = EDG3 (Homo sapiens, UniProt Q99500); conditions: read-out: RC50 (the source's name)
Sequence of EDG3 (Q99500 whole entry): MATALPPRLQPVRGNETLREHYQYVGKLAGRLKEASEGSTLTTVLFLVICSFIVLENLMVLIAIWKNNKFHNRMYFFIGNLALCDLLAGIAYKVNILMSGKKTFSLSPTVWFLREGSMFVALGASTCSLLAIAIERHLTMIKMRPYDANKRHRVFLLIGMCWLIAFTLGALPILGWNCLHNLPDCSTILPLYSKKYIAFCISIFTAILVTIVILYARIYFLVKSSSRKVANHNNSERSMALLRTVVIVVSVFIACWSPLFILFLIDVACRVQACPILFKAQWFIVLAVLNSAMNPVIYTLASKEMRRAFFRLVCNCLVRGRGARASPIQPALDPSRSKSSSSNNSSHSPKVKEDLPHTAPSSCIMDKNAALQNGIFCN

EDG1 = EDG1 (Homo sapiens, UniProt P21453); conditions: read-out: RC50 (the source's name)
Sequence of EDG1 (P21453 whole entry): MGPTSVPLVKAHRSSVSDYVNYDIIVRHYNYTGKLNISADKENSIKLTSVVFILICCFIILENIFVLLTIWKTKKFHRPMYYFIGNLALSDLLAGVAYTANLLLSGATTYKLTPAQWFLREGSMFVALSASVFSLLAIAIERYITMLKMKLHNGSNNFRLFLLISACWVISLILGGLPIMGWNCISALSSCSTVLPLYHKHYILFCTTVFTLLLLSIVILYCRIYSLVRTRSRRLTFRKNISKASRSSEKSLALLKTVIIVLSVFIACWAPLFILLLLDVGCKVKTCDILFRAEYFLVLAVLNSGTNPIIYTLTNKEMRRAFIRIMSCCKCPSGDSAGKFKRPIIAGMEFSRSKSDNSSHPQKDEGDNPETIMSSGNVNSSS

CCR1 = molecular target: T1, CCR1 (Homo sapiens, UniProt P32246); conditions: read-out: RC50 (the source's name)
T1 sequence (P32246 1-355): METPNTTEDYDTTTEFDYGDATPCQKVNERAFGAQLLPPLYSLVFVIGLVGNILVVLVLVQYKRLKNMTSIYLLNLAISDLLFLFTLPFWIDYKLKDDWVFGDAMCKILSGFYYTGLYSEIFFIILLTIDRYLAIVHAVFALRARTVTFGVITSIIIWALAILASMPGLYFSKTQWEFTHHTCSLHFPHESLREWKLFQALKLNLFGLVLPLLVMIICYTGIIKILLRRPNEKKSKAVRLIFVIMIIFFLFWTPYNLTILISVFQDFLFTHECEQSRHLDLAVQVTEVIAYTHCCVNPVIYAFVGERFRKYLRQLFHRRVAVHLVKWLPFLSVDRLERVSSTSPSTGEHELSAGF

CCR5 = CCR5 (Homo sapiens, UniProt P51681); conditions: read-out: RC50 (the source's name)
Sequence of CCR5 (P51681 whole entry): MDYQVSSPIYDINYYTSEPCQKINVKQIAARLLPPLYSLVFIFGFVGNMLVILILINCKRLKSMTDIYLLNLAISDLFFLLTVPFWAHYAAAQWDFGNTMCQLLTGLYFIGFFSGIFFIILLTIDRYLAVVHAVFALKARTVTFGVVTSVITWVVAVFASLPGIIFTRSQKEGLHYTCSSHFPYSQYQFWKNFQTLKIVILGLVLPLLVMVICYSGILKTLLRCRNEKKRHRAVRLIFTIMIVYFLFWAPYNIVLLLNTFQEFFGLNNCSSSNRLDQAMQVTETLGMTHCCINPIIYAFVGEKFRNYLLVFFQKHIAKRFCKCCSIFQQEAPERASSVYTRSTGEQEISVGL

CCR3 = molecular target: T2, CCR3 (Homo sapiens, UniProt P51677); conditions: read-out: RC50 (the source's name)
T2 sequence (P51677 1-355): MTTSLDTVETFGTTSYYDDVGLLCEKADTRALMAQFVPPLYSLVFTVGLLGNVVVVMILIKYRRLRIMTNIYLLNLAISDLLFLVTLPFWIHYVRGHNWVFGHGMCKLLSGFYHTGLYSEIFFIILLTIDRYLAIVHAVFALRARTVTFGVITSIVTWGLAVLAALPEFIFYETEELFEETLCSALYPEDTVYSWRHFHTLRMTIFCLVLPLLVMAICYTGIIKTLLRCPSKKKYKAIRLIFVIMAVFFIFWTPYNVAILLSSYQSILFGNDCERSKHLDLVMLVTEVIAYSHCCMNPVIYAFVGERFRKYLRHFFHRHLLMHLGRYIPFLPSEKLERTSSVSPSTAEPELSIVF

CCR7 = molecular target: T3, CCR7 (Homo sapiens, UniProt P32248); conditions: read-out: RC50 (the source's name)
T3 sequence (P32248 25-378): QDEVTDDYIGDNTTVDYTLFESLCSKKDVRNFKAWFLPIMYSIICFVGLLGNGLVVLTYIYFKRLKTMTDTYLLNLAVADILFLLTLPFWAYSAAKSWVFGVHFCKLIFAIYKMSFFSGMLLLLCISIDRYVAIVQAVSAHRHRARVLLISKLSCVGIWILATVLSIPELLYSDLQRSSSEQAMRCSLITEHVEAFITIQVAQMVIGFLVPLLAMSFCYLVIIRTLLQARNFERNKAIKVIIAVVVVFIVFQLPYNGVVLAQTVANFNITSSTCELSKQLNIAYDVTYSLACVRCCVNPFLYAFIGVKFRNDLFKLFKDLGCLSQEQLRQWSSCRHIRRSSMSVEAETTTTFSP

CCR6 = molecular target: T4, CCR6 (Homo sapiens, UniProt P51684); conditions: read-out: RC50 (the source's name)
T4 sequence (P51684 1-374): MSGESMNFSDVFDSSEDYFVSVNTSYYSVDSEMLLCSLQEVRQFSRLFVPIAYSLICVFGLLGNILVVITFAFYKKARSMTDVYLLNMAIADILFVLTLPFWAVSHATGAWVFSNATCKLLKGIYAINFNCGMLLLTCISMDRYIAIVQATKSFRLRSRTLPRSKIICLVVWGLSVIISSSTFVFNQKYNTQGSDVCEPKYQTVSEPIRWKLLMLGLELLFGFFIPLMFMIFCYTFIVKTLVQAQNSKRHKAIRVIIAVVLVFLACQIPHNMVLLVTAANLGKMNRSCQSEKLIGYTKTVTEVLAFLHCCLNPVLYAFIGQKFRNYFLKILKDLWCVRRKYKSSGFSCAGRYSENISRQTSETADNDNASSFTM

CXCR1 = molecular target: T5, CXCR1 (Homo sapiens, UniProt P25024); conditions: read-out: RC50 (the source's name)
T5 sequence (P25024 1-350): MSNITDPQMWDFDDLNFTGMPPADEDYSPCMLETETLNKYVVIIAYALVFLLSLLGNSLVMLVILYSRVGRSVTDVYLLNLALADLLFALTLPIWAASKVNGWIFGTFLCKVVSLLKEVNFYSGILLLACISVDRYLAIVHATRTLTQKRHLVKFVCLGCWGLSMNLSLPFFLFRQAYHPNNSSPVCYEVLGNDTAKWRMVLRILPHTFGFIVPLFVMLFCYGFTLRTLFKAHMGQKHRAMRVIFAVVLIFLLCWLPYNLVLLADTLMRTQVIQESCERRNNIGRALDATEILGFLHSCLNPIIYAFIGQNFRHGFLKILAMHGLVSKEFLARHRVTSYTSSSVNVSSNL

CXCR2 = molecular target: T6, CXCR2 (Homo sapiens, UniProt P25025); conditions: read-out: RC50 (the source's name)
T6 sequence (P25025 1-360): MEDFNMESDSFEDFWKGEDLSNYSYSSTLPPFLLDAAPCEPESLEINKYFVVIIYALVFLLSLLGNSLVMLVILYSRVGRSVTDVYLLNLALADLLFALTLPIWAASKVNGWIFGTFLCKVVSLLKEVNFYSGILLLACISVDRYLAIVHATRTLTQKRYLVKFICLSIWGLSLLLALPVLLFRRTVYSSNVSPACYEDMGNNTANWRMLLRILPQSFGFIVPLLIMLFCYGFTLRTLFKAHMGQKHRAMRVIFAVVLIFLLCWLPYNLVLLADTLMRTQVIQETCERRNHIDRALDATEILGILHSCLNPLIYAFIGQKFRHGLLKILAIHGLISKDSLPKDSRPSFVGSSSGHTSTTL

CXCR3 = molecular target: T7, CXCR3 (Homo sapiens, UniProt P49682); conditions: read-out: RC50 (the source's name)
T7 sequence (P49682 1-368): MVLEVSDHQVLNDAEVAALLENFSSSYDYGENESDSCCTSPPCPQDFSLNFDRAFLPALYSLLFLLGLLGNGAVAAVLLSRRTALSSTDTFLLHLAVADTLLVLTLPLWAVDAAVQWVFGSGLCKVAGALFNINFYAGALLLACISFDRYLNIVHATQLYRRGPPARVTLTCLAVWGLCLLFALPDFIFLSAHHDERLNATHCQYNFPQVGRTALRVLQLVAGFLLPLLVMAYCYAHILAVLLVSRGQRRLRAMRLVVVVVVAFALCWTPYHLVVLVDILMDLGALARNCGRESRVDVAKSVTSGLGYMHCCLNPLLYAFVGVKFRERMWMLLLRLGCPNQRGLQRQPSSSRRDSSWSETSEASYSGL

CXCR5 = molecular target: T8, CXCR5 (Homo sapiens, UniProt P32302); conditions: read-out: RC50 (the source's name)
T8 sequence (P32302 1-372): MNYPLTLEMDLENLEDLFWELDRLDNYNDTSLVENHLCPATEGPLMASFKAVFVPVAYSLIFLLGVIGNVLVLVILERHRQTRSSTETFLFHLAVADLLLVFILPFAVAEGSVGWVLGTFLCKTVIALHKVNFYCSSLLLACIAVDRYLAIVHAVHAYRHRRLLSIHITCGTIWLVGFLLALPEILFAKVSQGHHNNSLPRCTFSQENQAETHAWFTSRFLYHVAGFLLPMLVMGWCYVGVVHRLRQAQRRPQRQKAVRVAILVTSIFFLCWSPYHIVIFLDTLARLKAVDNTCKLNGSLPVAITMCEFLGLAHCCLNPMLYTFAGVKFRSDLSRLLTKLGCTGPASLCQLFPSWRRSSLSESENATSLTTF

GPR1 = molecular target: T9, GPR1 (Homo sapiens, UniProt P46091); conditions: read-out: RC50 (the source's name)
T9 sequence (P46091 1-355): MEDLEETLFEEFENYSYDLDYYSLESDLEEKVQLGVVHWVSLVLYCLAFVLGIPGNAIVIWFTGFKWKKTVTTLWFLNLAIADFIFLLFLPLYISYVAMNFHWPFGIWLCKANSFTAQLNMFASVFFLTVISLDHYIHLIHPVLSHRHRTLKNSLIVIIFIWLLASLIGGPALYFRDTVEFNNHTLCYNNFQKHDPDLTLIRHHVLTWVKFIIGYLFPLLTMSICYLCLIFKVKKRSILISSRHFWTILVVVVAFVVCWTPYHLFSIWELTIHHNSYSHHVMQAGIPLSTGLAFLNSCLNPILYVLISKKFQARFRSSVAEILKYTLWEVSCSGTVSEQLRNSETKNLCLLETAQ

CX3CR1 = molecular target: T10, CX3CR1 (Homo sapiens, UniProt P49238); conditions: read-out: RC50 (the source's name)
T10 sequence (P49238 1-355): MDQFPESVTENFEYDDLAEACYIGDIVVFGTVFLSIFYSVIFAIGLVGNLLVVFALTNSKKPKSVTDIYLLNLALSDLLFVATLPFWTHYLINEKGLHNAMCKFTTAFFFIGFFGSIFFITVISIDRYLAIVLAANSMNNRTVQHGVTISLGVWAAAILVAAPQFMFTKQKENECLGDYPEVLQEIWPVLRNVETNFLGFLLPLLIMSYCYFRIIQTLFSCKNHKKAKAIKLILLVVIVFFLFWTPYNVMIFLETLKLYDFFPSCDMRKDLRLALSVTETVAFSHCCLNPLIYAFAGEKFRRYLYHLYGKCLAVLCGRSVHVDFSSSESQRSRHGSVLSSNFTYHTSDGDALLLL

GPR103 = GPR103 (Homo sapiens, UniProt Q96P65); conditions: read-out: RC50 (the source's name)
Sequence of GPR103 (Q96P65 whole entry): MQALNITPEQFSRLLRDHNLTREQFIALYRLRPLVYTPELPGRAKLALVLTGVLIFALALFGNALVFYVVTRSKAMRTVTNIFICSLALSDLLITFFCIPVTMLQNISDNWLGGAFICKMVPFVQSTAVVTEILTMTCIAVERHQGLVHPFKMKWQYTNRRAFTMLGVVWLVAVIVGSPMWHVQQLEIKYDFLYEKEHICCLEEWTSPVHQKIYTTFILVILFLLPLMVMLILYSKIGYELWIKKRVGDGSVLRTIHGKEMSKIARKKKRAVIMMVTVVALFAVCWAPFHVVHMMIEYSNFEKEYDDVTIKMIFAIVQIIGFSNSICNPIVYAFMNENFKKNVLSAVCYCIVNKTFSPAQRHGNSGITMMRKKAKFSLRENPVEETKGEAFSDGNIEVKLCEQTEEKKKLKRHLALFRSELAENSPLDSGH

Compound: C[C@H](CCCC(C)(C)O)[C@H]1CC[C@H]2[C@@H]3[C@H](O)C=C4C[C@@H](O)CC[C@]4(C)[C@H]3CC[C@]12C [7a,25-Dihydroxycholesterol]
EC50 (EBI2): 3.63 nM

EC50 (FFAR1): 959 nM
Compound: O=C(O)CCc1ccc(NCc2cccc(Oc3ccccc3)c2)cc1 [GW9508]

EC50 (CRTH2): 3.34 nM
Compound: CCCCC[C@H](O)/C=C/[C@H]1C(=O)C[C@H](O)[C@@H]1C/C=C\CCCC(=O)O [PGD2]

EC50 (EDG6): 30.5 nM | EC50 (EDG3): 10.6 nM | EC50 (EDG1): 19 nM
Compound: CCCCCCCCCCCCC/C=C/[C@@H](O)[C@@H](N)COP(=O)(O)O [S-1-P]

EC50 (CCR1): 1.04 nM | EC50 (CCR5): 7.55 nM
Compound: CCL3: control agonist

EC50 (CCR3): 40.6 nM
Compound: CCL13: control agonist

EC50 (CCR7): 5.65 nM
Compound: CCL19: control agonist

EC50 (CCR6): 2.95 nM
Compound: CCL20: control agonist

EC50 (CXCR1): 2.8 nM | EC50 (CXCR2): 0.304 nM
Compound: CXCL8: control agonist

EC50 (CXCR3): 12 nM
Compound: CXCL11: control agonist

EC50 (CXCR5): 21 nM
Compound: CXCL13: control agonist

EC50 (GPR1): 2.26 nM
Compound: Chemerin: control agonist

EC50 (CX3CR1): 0.444 nM
Compound: Fractalkine: control agonist

EC50 (GPR103): 10 nM
Compound: TSGPLGNLAEELNGYSRKKGGFSFRF-NH2 (C-terminus assumed) [QRFP-26]
